{"source": "paper PMC5519134", "biological_target": "FZD2-CRD-Fc, recombinant human Frizzled 2 cysteine-rich domain, Fc-tagged (human)", "test": "BLI"}
{"substance": "TcdB_(1-1830), truncated TcdB lacking the CROPs region (from UniProt P18177 1-1830) (domain or fragment)", "values": [{"measurement": "Kd", "value": 17, "unit": "nM"}]}
